From the RNAGym collection of RNA variant scans (doi:10.7554/elife.80360)

B1: Hairpin Ribozyme (parent)
chain: GUCCUCUUUCACGUGCGCGUGAAAGAGAGAAGUGAACCAGAGAAACACACGUUGUGGUAUAUUACCUGGUA

Variants of: B1
Assay: self-cleavage, relative activity (ratio to wild type); higher = more cleavage; co-transcriptional

Going from C38U C65U to A39C A41U, the self-cleavage rises from 0.12 to 0.406.

Going from C37G U70G to A39C U58A, the self-cleavage falls from 0.405 to 0.231.

Compared with A39C U58G, C37A U55C is lower in self-cleavage: 0.315 for the first, 0.1 for the second.

First: A36G G68C
Second: C38G G57U
The self-cleavage of the first is higher: 0.211 for the first, 0.116 for the second.

First: C38U G51U
Second: C38U G51A
The self-cleavage of the first is lower: 0.774 for the first, 0.786 for the second.

First: C37A A43U
Second: C37A A43C
The self-cleavage of the first is higher: 0.15 for the first, 0.0917 for the second.

First: C37A U62G
Second: A39G U60G
The self-cleavage of the first is lower: 0.127 for the first, 0.21 for the second.

Compared with A39C G68U, A39C G68A is lower in self-cleavage: 0.229 for the first, 0.215 for the second.

Going from A39C A44C to A39G A47C, the self-cleavage falls from 0.17 to 0.166.

Going from C37U G42U to C38A G51C, the self-cleavage falls from 0.27 to 0.223.

Going from A36U A61C to A39C C48A, the self-cleavage falls from 0.196 to 0.171.

Going from C38G U63C to A36G G40A, the self-cleavage rises from 0.178 to 0.349.

First: A36G G40U
Second: C38G G68C
The self-cleavage of the first is lower: 0.0848 for the first, 0.591 for the second.

Going from C37A G54A to C37A G54C, the self-cleavage falls from 0.187 to 0.114.

Compared with C37A G54U, C37A G42A is lower in self-cleavage: 0.269 for the first, 0.124 for the second.

First: A36G C65A
Second: C37U A61C
The self-cleavage of the first is higher: 0.73 for the first, 0.146 for the second.

Going from C37U A61U to C37U A61G, the self-cleavage falls from 0.248 to 0.126.

Compared with C37U U63G, C37U A41U is higher in self-cleavage: 0.172 for the first, 0.969 for the second.

First: C37U A71U
Second: C37U A71C
The self-cleavage of the first is lower: 0.557 for the first, 0.93 for the second.

First: C37G G40A
Second: C38G A61U
The self-cleavage of the first is lower: 0.0652 for the first, 0.227 for the second.

Compared with C38G A61G, C38U G68A is higher in self-cleavage: 0.166 for the first, 0.931 for the second.

Compared with C38U G68U, C38G U60C is lower in self-cleavage: 0.605 for the first, 0.233 for the second.

First: A36G G51U
Second: C38U U52G
The self-cleavage of the first is higher: 0.97 for the first, 0.261 for the second.

First: C38U U52A
Second: A36U U60G
The self-cleavage of the first is higher: 0.509 for the first, 0.246 for the second.

First: A36U U60C
Second: A39G A45U
The self-cleavage of the first is higher: 0.804 for the first, 0.111 for the second.

Compared with A39G C46G, A39G C46U is higher in self-cleavage: 0.113 for the first, 0.119 for the second.

Going from A39G C46A to C37G A47G, the self-cleavage rises from 0.0818 to 0.15.

First: C38A A49C
Second: C38A A49G
The self-cleavage of the first is lower: 0.11 for the first, 0.182 for the second.

Compared with C38A G69C, A39G C65A is higher in self-cleavage: 0.168 for the first, 0.442 for the second.

Compared with A36G G56U, C37G C66A is higher in self-cleavage: 0.183 for the first, 0.207 for the second.

Compared with C38U A59G, C38A A41G is higher in self-cleavage: 0.194 for the first, 0.51 for the second.

Going from C37G G56A to C37G U52G, the self-cleavage rises from 0.204 to 0.377.

Compared with C37A A45U, A39G G56C is lower in self-cleavage: 0.169 for the first, 0.117 for the second.

Compared with A39C U55G, C37A U70C is higher in self-cleavage: 0.205 for the first, 0.438 for the second.

Going from C37A U70A to C38G A71U, the self-cleavage falls from 0.368 to 0.138.

Compared with C38G A71G, C37G U62A is lower in self-cleavage: 0.172 for the first, 0.153 for the second.

Going from A36G C66A to A39G A43G, the self-cleavage falls from 0.0924 to 0.0922.

Compared with A36G U58G, A36U U63G is lower in self-cleavage: 0.952 for the first, 0.165 for the second.

Compared with A36U U63C, A36U U63A is higher in self-cleavage: 0.172 for the first, 0.207 for the second.

Going from C38G U67A to C37G A64U, the self-cleavage falls from 0.224 to 0.192.

Compared with C37G A64C, C37U C48G is lower in self-cleavage: 0.136 for the first, 0.0435 for the second.

Going from C38U U58G to A39C A43G, the self-cleavage falls from 0.447 to 0.085.

Compared with A39G C48U, A36U U70C is higher in self-cleavage: 0.0998 for the first, 0.473 for the second.

Going from A36U U70G to A36U U70A, the self-cleavage rises from 0.665 to 0.775.

First: A39C U52G
Second: C37A U60C
The self-cleavage of the first is lower: 0.267 for the first, 0.337 for the second.

First: C38A A64C
Second: C38A A64U
The self-cleavage of the first is lower: 0.103 for the first, 0.179 for the second.

Compared with C38A A64G, C38A U62C is lower in self-cleavage: 0.108 for the first, 0.0746 for the second.

Compared with A36G G69A, A36G G69U is lower in self-cleavage: 0.414 for the first, 0.237 for the second.

First: C38U G57U
Second: A39C A61G
The self-cleavage of the first is higher: 0.175 for the first, 0.131 for the second.

Compared with A39G G69A, A39G G69C is lower in self-cleavage: 0.112 for the first, 0.101 for the second.

First: A39G U63G
Second: A39G U63C
The self-cleavage of the first is lower: 0.147 for the first, 0.158 for the second.

First: C38G U70C
Second: C38A C65A
The self-cleavage of the first is lower: 0.157 for the first, 0.198 for the second.

Going from C37A G56C to A39C G57A, the self-cleavage rises from 0.174 to 0.215.

Going from C38A A39G to C38A A39C, the self-cleavage falls from 0.136 to 0.0755.

First: A39G A49C
Second: A36G U70G
The self-cleavage of the first is lower: 0.176 for the first, 1.03 for the second.

First: C37U C38U
Second: C37U C38G
The self-cleavage of the first is higher: 0.201 for the first, 0.0604 for the second.

Compared with C37U A59G, C37U A59C is higher in self-cleavage: 0.152 for the first, 0.162 for the second.

Compared with A36G C37U, C37A G68A is higher in self-cleavage: 0.0788 for the first, 0.302 for the second.

Compared with C37A A44C, C37A A44U is lower in self-cleavage: 0.203 for the first, 0.109 for the second.

First: C37A A44G
Second: C38G U62A
The self-cleavage of the first is higher: 0.208 for the first, 0.127 for the second.

First: C38U C50U
Second: C37A C50A
The self-cleavage of the first is higher: 0.249 for the first, 0.124 for the second.

Going from C37A C50G to C37A G51A, the self-cleavage rises from 0.128 to 0.535.

Going from A36U C37G to C38U C48U, the self-cleavage rises from 0.149 to 0.174.

Going from C38U C48G to A39G U62A, the self-cleavage falls from 0.123 to 0.12.

Going from A39G U62C to C38A A71G, the self-cleavage rises from 0.145 to 0.249.

First: C38U A61G
Second: C38U A61C
The self-cleavage of the first is higher: 0.26 for the first, 0.197 for the second.

Going from C38U U70A to A39C A45G, the self-cleavage falls from 0.522 to 0.105.

Compared with A39C G54U, C37A C48A is higher in self-cleavage: 0.103 for the first, 0.189 for the second.

Going from A36U G68A to A36U G68C, the self-cleavage rises from 0.106 to 0.129.

Going from A39G U52A to A36U U62C, the self-cleavage falls from 0.23 to 0.185.

Compared with C38G G51C, A39C U53G is higher in self-cleavage: 0.147 for the first, 0.207 for the second.

Going from A36G C46U to A39C A47G, the self-cleavage falls from 0.189 to 0.172.

Going from A39G A71G to A39C, the self-cleavage rises from 0.222 to 0.539.

Going from A39G to A39U, the self-cleavage rises from 0.299 to 0.424.

Compared with C38A U67A, C38A U67G is higher in self-cleavage: 0.124 for the first, 0.137 for the second.

First: C38A A45C
Second: C38A C66A
The self-cleavage of the first is higher: 0.234 for the first, 0.216 for the second.

First: C38A C66U
Second: C38A U53C
The self-cleavage of the first is lower: 0.0169 for the first, 0.228 for the second.

Going from C38A U53A to C37U A45G, the self-cleavage falls from 0.215 to 0.0764.

Going from C38G A43G to C37A A39G, the self-cleavage rises from 0.171 to 0.181.

Going from A36U U58G to A36U U58C, the self-cleavage rises from 0.417 to 0.719.

Going from C38U C66G to A36G A71G, the self-cleavage rises from 0.255 to 0.982.

First: A36G C38G
Second: C37G G68U
The self-cleavage of the first is lower: 0.127 for the first, 0.189 for the second.

Going from C37U A64C to A36U G42C, the self-cleavage rises from 0.205 to 0.234.

Work on A39C U63G yielded a self-cleavage of 0.122.
